According to US20190041402A1 (GOVERNING COUNCIL OF THE UNIVERSITY OF TORONTO, published 2019):

Columns and labels:
mouse αKlotho = target: T1, mouse αKlotho (mouse, UniProt O35082 35-982); test: SPR (ProteOn XPR36), Fab captured by anti-IgG(H+L), mouse αKlotho injected in serial dilutions, Langmuir fit
T1 construct: also called Mu aKL
T1 sequence (looked up): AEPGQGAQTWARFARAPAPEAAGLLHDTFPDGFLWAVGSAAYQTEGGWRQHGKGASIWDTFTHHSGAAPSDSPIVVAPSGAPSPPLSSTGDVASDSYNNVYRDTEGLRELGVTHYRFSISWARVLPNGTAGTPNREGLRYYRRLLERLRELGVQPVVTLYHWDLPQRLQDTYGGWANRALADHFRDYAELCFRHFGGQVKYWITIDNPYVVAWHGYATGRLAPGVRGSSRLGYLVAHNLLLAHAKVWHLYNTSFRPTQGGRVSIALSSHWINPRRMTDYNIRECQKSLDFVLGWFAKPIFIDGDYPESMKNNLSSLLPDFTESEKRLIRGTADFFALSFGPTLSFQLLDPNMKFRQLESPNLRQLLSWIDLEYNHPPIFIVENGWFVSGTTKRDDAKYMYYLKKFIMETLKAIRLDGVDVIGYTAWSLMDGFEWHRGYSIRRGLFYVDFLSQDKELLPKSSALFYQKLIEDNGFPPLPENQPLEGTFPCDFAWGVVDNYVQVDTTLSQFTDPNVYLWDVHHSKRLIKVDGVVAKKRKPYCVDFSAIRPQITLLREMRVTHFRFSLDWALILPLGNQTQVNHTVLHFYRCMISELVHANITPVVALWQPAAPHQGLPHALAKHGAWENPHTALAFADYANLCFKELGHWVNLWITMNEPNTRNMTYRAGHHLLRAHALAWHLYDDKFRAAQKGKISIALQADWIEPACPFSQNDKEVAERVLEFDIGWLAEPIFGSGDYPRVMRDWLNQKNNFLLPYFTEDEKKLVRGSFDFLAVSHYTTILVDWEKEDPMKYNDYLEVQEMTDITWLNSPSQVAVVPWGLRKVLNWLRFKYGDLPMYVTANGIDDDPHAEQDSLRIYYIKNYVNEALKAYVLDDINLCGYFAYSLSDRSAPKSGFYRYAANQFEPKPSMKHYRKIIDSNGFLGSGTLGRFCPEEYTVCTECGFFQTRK
Procedure: Estimated affinities against human and mouse antigen for select αKlotho Fabs were obtained by surface plasmon resonance on a ProteOn XPR36 (FIG. 17). Fabs were captured using an anti-IgG(H+L) antibody and serial dilutions of αKlotho were injected. Binding curves were fitted to the Langmuir model. (A) Determined Kon, Koff and KD values. (B) and (C) Binding curves for human and mouse antigen respectively.

[1] = target: T2, full-length murine βKlotho expressed in HEK293 cells (mouse, UniProt Q99N32 1-1043); test: immunocytochemistry of transfected HEK293 cells
T2 construct: whole, on cells
T2 sequence (looked up): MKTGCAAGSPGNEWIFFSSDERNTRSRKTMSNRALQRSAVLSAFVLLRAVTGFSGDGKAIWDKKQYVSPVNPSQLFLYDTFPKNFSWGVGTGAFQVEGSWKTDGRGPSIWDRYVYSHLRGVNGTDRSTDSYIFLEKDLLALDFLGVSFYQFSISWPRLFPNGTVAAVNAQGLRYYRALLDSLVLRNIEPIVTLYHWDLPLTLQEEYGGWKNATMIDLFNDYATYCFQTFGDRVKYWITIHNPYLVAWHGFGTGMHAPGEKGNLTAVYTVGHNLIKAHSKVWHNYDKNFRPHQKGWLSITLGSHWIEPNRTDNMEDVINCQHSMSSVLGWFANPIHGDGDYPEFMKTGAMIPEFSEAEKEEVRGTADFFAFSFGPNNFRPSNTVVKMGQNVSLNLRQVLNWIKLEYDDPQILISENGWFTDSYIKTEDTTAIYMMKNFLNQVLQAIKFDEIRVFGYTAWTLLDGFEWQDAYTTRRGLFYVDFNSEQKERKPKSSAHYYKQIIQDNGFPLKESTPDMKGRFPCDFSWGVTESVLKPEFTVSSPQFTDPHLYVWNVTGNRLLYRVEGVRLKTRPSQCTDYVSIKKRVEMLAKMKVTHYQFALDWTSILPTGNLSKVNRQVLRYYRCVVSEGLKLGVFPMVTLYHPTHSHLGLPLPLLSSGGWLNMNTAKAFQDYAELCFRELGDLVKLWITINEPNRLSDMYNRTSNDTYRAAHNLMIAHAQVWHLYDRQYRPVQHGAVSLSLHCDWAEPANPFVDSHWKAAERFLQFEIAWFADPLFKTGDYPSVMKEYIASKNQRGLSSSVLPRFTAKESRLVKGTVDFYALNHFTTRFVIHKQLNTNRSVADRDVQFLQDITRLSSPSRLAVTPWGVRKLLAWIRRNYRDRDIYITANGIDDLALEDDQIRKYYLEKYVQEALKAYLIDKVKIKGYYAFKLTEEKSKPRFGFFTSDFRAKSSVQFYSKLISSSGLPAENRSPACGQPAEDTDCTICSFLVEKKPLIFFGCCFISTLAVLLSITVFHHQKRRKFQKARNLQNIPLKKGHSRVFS

B1: sb106 Fab (Fab, V domains shown)
VH: EVQLVESGGGLVQPGGSLRLSCAASGFNISYYSIHWVRQAPGKGLEWVAYISPSYGYTSYADSVKGRFTISADTSKNTAYLQMNSLRAEDTAVYYCARYYVYASHGWAGYGMDYWGQGTLVTVSS
VL: DIQMTQSPSSLSASVGDRVTITCRASQSVSSAVAWYQQKPGKAPKLLIYSASSLYSGVPSRFSGSRSGTDFTLTISSLQPEDFATYYCQQAGYSPITFGQGTKVEIKR
notes: also called Fsb106; clone 48
Mouse αKlotho
  Kd: 0.784 nM
  koff: 0.000159 s⁻¹
  kon: 202000 M⁻¹ s⁻¹
[1]
  binding result: no binding (tested: 5 µg/ml)
